Assay results reported in patent publication US20200166530A1 (CASE WESTERN RESERVE UNIVERSITY, published 2020).
Ends that are not written are not given here.

Biological target: T1, hERα^CDE, multidomain segment of human estrogen receptor alpha containing both DBD and LBD (residues … (human, UniProt P03372 181-552))
T1 construct: Expressed in E. coli from the pMCSG7 vector; It functions as a homodimer; In the SPR assay it was injected as the complex with ERE-DNA and estradiol; also called hERα^CDE-DNA-E2 complex
T1 sequence: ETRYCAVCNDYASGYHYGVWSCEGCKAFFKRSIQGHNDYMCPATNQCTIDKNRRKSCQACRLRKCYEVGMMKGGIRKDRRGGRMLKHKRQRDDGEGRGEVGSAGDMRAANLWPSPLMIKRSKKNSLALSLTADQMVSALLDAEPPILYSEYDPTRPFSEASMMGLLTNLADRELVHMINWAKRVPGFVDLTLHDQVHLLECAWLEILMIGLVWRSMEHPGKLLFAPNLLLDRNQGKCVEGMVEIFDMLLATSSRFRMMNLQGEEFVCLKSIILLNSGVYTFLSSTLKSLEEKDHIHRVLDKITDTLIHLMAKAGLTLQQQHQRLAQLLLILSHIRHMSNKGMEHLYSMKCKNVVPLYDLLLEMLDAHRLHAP
Assay: SPR (Biacore T100): biotinylated TIF2 peptide immobilised on an SA chip, hERα^CDE-DNA-E2 complex injected at 0-5 µM, 25° C [panel e]
Description: Measurements were conducted at 25° C. using a Biacore T100 system.

binding result: binds
B1: coactivator TIF2 peptide (KENALLRYLLDKDD) (peptide)
peptide: KENALLRYLLDKDD
modifications: also: biotinylated (position not given here)
notes: For SPR the peptide was biotinylated and captured on an SA sensor chip at 10 RUs; also called biotinylated TIF2 peptide
